Experimental data: the supplement of paper PMC9732359
± gives the uncertainty stated by the source.

Assay: protein stability index of a GFP-peptide fusion (yeast GPS) (PSI 1-4); higher = more stable; sorted into four equal gates, so the index is relative within each strain
How it was run: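 Plasmids in a pooled yeast library fused tiled 17-residue yeast protein peptides downstream of GFP and also expressed Cherry. Mid-log cultures grown without leucine were sorted into four equal gates by GFP/Cherry fluorescence ratio. Each gate's plasmids were PCR-amplified and Illumina-sequenced, and reads were matched to strains by barcodes. The protein stability index is derived by multiplying each gate's read frequency by its gate number and summing the results.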

| Sequence | protein stability index (doa10∆) | protein stability index (pdr5∆) | protein stability index (san1∆) | protein stability index (ubr1∆) |
| --- | --- | --- | --- | --- |
| KKTCSSCGYPAAKTRSY [RPL37A] | 2.25 ± 0.27 | 3.17 ± 0.11 | 2.69 ± 0.093 | 3.27 ± 0.11 |
| DEDLHEFQIEDAIWSLV [SRB8] | 3.4 ± 0.13 | 2.96 ± 0.086 | 2.88 ± 0.14 | 3.3 ± 0.26 |
| NREAATKEVESNIITKS [DIS3] | 2.79 ± 0.11 | 2.94 ± 0.064 | 2.79 ± 0.074 | 2.87 ± 0.089 |
| KNKSGKIFVETKFSKLI [FAS1] | 2.33 ± 0.072 | 2.69 ± 0.076 | 2.3 ± 0.16 | 1.84 ± 0.077 |
| SLEHELKRSTELLETVS [YIL149C/MLP2] | 2 ± 0.057 | 2.21 ± 0.054 | 2.25 ± 0.071 | 2.17 ± 0.037 |
| NSKVDMKYDIFAKFIHH [IRR1] | 2.39 ± 0.083 | 2.15 ± 0.077 | 2.31 ± 0.071 | 2.47 ± 0.054 |
| RAEAKAQGVAVQLKRQP [RPL21A] | 2.75 ± 0.096 | 2.19 ± 0.08 | 1.71 ± 0.12 | 2.46 ± 0.11 |
| FNPYGDNGGTILGIAGE [PRE7] | 3.37 ± 0.1 | 3.24 ± 0.11 | 3.24 ± 0.16 | 3.28 ± 0.064 |
| ILATNSLRILAKLSERS [YJL039C/NUP192] | 2.39 ± 0.062 | 2.67 ± 0.062 | 2.49 ± 0.085 | 2.67 ± 0.053 |
| VEFCGYSIPHPSENLLN [RPC19] | 2.7 ± 0.077 | 3.05 ± 0.062 | 2.92 ± 0.05 | 2.95 ± 0.074 |
| FAKQVDVQLERVADEDA [IRR1] | 3.15 ± 0.15 | 3.13 ± 0.29 | 2.76 ± 0.26 | – |
| DYFFYFLVLYDVKTAEE [NUT1] | 1.52 ± 0.043 | 1.46 ± 0.044 | 1.62 ± 0.094 | 1.76 ± 0.04 |
| KQENETMQPPYIQERLK [MED11] | 2.88 ± 0.055 | 3.06 ± 0.054 | 3.19 ± 0.04 | 3.02 ± 0.033 |
| TNKENNIVDSSAAGNKA [YIL149C/MLP2] | 2.18 ± 0.061 | 2.44 ± 0.057 | 2.87 ± 0.041 | 2.92 ± 0.036 |
| ERSAGNIVQVFKKAAPS [RPB2] | 2.6 ± 0.12 | 2.53 ± 0.14 | 2.52 ± 0.11 | 2.91 ± 0.27 |
| MAHENVWFSHPRRYGKG [RPS29A] | 3.39 ± 0.24 | 2.95 ± 0.17 | 3.18 ± 0.14 | 3.18 ± 0.23 |
| KNKYGEINSEDYDNKTK [SRP68] | 3.23 ± 0.094 | 2.89 ± 0.16 | 3.43 ± 0.06 | 3.14 ± 0.084 |
| NIETGENHNGQSISNEN [SWI3] | 2.59 ± 0.26 | 3.14 ± 0.12 | 3.06 ± 0.12 | 3.13 ± 0.12 |
| LMDKCLPKVRIRTRRAA [DIS3] | 1.86 ± 0.06 | 1.34 ± 0.048 | 1.42 ± 0.085 | 1.5 ± 0.039 |
| WVIRKQRRTNNSGVGSA [MED6] | 2.48 ± 0.27 | 2.36 ± 0.14 | 2.58 ± 0.11 | 2.8 ± 0.14 |
| NKKDKKKEEEEQLSEED [RPN1] | 3.55 ± 0.21 | 3.76 ± 0.23 | 3.28 ± 0.13 | 3.36 ± 0.15 |
| LNDEGEPIKVNVRVGQA [RPN1] | 3.13 ± 0.09 | 3.03 ± 0.062 | 2.85 ± 0.065 | 3.2 ± 0.063 |
| TSTNPNGLGTSHINTNV [ARP7] | 3.14 ± 0.068 | 3.28 ± 0.061 | 2.96 ± 0.061 | 3.33 ± 0.057 |
| KVATEKDFLKAVDKVIS [RPT1] | 3.23 ± 0.074 | 3.26 ± 0.094 | 3.05 ± 0.11 | 3.26 ± 0.053 |
| GYDPALLNILSGLPTCD [RPN2] | 2.79 ± 0.083 | 2.91 ± 0.11 | 2.39 ± 0.078 | 2.55 ± 0.1 |
| AELELVDSLDPFSEGVT [SMC4] | 2.84 ± 0.072 | 2.64 ± 0.061 | 2.75 ± 0.12 | 3.11 ± 0.054 |
